Starred links: 1 amine or outer side, 2 acyl side, 3 side chain; linkers in the order of their positions; H or OH if unused. Non-standard residues stand in square brackets, D forms with d. Groups on a side chain read outwards from the residue. No end group written: not given here. *: point of attachment. C20 diacid = O=C(O)CCCCCCCCCCCCCCCCCCC(=O)*; C18 diacid = O=C(O)CCCCCCCCCCCCCCCCC(=O)*; γGlu = O=C(O)[C@H](CCC(=O)[*:2])N[*:1]; εLys = N[C@@H](CCCCN[*:1])C(=O)[*:2]; AEEA = NCCOCCOCC(=O)O; Aib = CC(C)(N)C(=O)O
What was measured:
Assay in all cases: cell-based or functional assay
human GLP-1 receptor = human GLP-1 receptor (human, UniProt P43220 24-463)
[1] = target: T1, human neuropeptide Y2 receptor (human, UniProt P49146 1-381)
T1 sequence (looked up): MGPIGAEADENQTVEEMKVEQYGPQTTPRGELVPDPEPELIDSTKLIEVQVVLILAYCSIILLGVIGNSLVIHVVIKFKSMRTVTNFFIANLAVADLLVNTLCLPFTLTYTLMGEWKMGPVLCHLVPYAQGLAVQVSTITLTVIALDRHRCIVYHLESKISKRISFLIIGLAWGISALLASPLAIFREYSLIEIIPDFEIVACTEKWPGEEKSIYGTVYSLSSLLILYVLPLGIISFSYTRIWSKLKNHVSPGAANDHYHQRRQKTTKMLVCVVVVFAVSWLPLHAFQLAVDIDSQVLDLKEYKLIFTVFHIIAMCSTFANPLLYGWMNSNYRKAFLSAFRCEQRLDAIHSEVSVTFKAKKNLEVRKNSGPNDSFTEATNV

human GIP receptor = target: T2, human GIP receptor (human, UniProt P48546 22-466)
T2 sequence (looked up): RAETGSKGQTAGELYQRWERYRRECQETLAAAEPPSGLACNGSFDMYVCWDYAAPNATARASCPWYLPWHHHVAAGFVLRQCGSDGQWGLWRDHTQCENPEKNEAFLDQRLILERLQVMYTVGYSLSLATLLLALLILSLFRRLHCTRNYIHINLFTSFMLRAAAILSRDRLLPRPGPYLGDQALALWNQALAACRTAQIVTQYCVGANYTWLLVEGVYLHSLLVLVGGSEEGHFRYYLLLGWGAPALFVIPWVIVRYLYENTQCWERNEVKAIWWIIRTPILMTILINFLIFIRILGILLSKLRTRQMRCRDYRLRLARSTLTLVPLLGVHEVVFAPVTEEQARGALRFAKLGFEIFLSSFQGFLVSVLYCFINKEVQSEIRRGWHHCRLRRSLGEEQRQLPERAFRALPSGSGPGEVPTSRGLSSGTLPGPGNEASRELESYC

| Binder | EC50 hGLP1R 0.5% hP (CreLuc) (human GLP-1 receptor) [nM] | EC50 hGLP1R 100% hP (CreLuc) (human GLP-1 receptor) [nM] | EC50 hNPY2R 0.5% hP (CreLuc) [1] [nM] | EC50 hNPY2R 100% hP (CreLuc) [1] [nM] | EC50 hGIPR 0.5% hP (CreLuc) (human GIP receptor) [nM] | EC50 hGIPR 100% hP (CreLuc) (human GIP receptor) [nM] |
| --- | --- | --- | --- | --- | --- | --- |
| Y[Aib]EGTFTSDYSI[Aib]LEKQAQ[Aib]AFVEWLIK([AEEA-AEEA-γGlu-γGlu-γGlu-γGlu-C20 diacid])GGPSEGASLRHYYNWLTRQRY-NH2 (also: TFA salt) [Compound 287] | 0.27 | 6.34 | 13.3 | 45.9 | 0.34 | 2.42 |
| Y[Aib]EGTFTSDYSI[Aib]LEKQAQ[Aib]AFVEWLIK([Glu-Glu-Glu-Glu-C18 diacid])GGPSEGASLRHYYNWLTRQRY-NH2 (also: TFA salt) [Compound 291] | 0.1 | 2.35 | 14.3 | 55.3 | 0.18 | 0.7 |
| Y[Aib]EGTFTSDYSI[Aib]LEKQAQ[Aib]AFVQWLIK([Glu-Glu-Glu-Glu-C18 diacid])GGPSEGASLRHYYNWLTRQRY-NH2 (also: TFA salt) [Compound 281] | 0.07 | 1.78 | 23 | 169 | 0.28 | 0.69 |
| Y[Aib]EGTFTSDYSI[Aib]LEKQAE[Aib]AFVEWLIK([γGlu-γGlu-γGlu-γGlu-C20 diacid])GGPSEGASLRHYYNWLTRQRY-NH2 (also: TFA salt) [Compound 280] | 0.44 | 14.7 | 15.6 | 91.4 | 0.38 | 2.44 |
| Y[Aib]EGTFTSDYSI[Aib]LEKQAQ[Aib]EFVEWLIK([AEEA-AEEA-γGlu-γGlu-γGlu-C18 diacid])GGPSEGASLRHYYNWLTRQRY-NH2 (also: TFA salt) [Compound 284] | 0.51 | 12.6 | 18.8 | 44.7 | 0.33 | 0.8 |

More lines, now with the values ahead:

| EC50 hGLP1R 0.5% hP (CreLuc) (human GLP-1 receptor) [nM] | EC50 hGLP1R 100% hP (CreLuc) (human GLP-1 receptor) [nM] | EC50 hNPY2R 0.5% hP (CreLuc) [1] [nM] | EC50 hNPY2R 100% hP (CreLuc) [1] [nM] | EC50 hGIPR 0.5% hP (CreLuc) (human GIP receptor) [nM] | EC50 hGIPR 100% hP (CreLuc) (human GIP receptor) [nM] | Binder |
| --- | --- | --- | --- | --- | --- | --- |
| 0.34 | 11.6 | 15.8 | 48.8 | 1.57 | 1.54 | Y[Aib]EGTFTSDYSI[Aib]LEKQAQ[Aib]AFVEWLIKGGPEEGASLRHYYNWLTRQRY-NH2 (not fully specified (residue 28); also: TFA salt) [Compound 285] |
| 0.13 | 2.87 | 9.68 | 46.3 | 0.89 | 1.18 | Y[Aib]EGTFTSDYSI[Aib]LEKQAQ[Aib]AFVEWLIK([εLys-γGlu-Glu-γGlu-γGlu-γGlu-C20 diacid])GGPSEGASLRHYYNWLTRQRY-NH2 (also: TFA salt) [Compound 290] |
| 0.08 | 3.2 | 14.2 | 55.2 | 0.21 | 0.89 | Y[Aib]EGTFTSDYSI[Aib]LEKQAQ[Aib]AFVEWLIK([γGlu-γGlu-γGlu-γGlu-C18 diacid])GGPSEGASLRHYYNWLTRQRY-NH2 (also: TFA salt) [Compound 294] |
